Laboratory results published in US20200129630A1, “METHODS FOR TREATING CANCER” (BicycleRD Limited, priority 2018, published 2020).
Numbered stars: 1 amine (or outer) side, 2 acyl side, 3 side chain; on linkers, the order of the positions; unused ones are H or OH. Bridge positions count the residues as written; N and C are the ends. Square brackets hold non-standard residues; d marks the D form. Peptide text beside a SMILES is read from it. * marks the point of attachment. X1 = COc1cc2cc(c1Cl)N(C)C(=O)C[C@H](OC(=O)[C@H](C)N(C)C(=O)CCSSC(C)CCC(=O)*)[C@]1(C)O[C@H]1[C@H](C)[C@@H]1C[C@@](O)(NC(=O)O1)[C@H](OC)/C=C/C=C(\C)C2; 1Nal = N[C@@H](Cc1cccc2ccccc12)C(=O)O; TBMB = c1c(C[*:1])cc(C[*:3])cc1C[*:2]; Tle = CC(C)(C)[C@H](N)C(=O)O; βAla = NCCC(=O)O; Sar = CNCC(=O)O

Tests used:
[1] = Stability in whole blood in vitro, mouse; format: in vitro ADME; details: 37° C.
Experimental: (§1) The stability of BT1718 was assessed in plasma and whole blood from humans, monkey, dog, mouse and rat. […] The mechanism for the difference in stability of the BT1718 peptide in whole blood between the different species is unknown.

[2] = Repeat dose toxicokinetics, rat and monkey; format: in vivo; details: both sexes, plasma, intravenous, rat or monkey, irrespective of dose, read-out: Plasma t1/2
Excerpt: (§2) In a repeat dose experiment with BT1718 no significant gender-related differences in the TK parameters for the rat or monkey were noted. Exposure in both the rat and monkey increased approximately linearly with dose and was maintained for 28 days on repeat dosing. […] Plasma clearance and volume of distribution were similar across BT1718 dose and consistent with the PK studies.

[3] = Intrinsic clearance in cryopreserved hepatocytes; format: in vitro ADME
Experimental: Accumulation of the majority of the radioactivity was found in the kidney and bladder irrespective of the labelled peptide dose; this is indicative of either non-saturable excretion or proteolysis followed by excretion through the kidneys. Furthermore, the intrinsic clearance of BT1718 and its Bicycle component, N241 was low when measured in cryopreserved hepatocytes. […] Unconjugated DM1, when radiolabelled, (as [[^3H]-DM1 (91 μCi/kg, 200 μg/kg, IV), was reported to distribute rapidly and extensively to the lungs, liver, kidney, spleen, heart, gastrointestinal tract, and adrenal glands in the rat. The major route of excretion of DM1 was through the bile/faeces, with a minimal amount excreted in the urine, a completely different distribution to BT1718 and its metabolites with little and short lived accumulation seen in other organs such as heart, liver, GI and lungs which would imply that these organs maybe spared systemic toxicity.

[4] = Non-GLP toxicity studies, dog; format: in vivo
Excerpt: (§4) These include in vitro tissue microarray in human, rat and monkey tissues and in vitro and in vivo assessment of immunogenicity. In vivo assessments include single dose toxicity in mice and rats, multiple dose range finding studies in mice, rats, dogs and monkeys (non-GLP) and GLP-compliant multiple dose studies in rats and monkeys consisting of 28-day on study phase with a 28-day recovery period.

[5] = Monkey GLP study toxicokinetics; format: in vivo; details: plasma, Day 1 male; for clearance / half-life / Cmax / Vd: Cynomolgus; for Cmax: read-out: C0/Cmax; for Vd: read-out: Vdss
Excerpt: as §2

[6] = nu/nu BALB/c mouse PK study; format: in vivo; details: plasma, 15 mg/m2, 15 mg/m^2 IV
MOLP-8 = assay: In vitro cytotoxicity (CellTiter-Glo) MOLP-8; format: cell-based; details: MOLP-8, Myeloma
Excerpt: (§3) Table 1 and Table 2 Notes: in general regression and stable disease correlated with the in vitro cytotoxicity and MT1-MMP expression. Female BALB/c mice n=3/group animals dosed twice per week except EBC-1 three per week. Tumor growth inhibition (TGI) (%)=[1−(Ti−T0)/(Vi−V0)]×100; Ti is the average tumor volume of a treatment group on a given day, TO is the average tumor volume of the treatment group on the day of treatment start, Vi is the average tumor volume of vehicle control group on the same day with Ti, and V0 is the average tumor volume of vehicle group on the day of treatment start. A one-way ANOVA was performed to compare tumor volume among groups, and when a significant F-statistics (a ratio of treatment variance to the error variance) was obtained, comparisons between groups were carried out with Games-Howell test. All data were analyzed using GraphPad Prism.* p<0.05, ** p<0.01, *** p<0.001. In vitro cytotoxicity was measured by CellTiter-Glo®, MT1-MMP membrane H score from immunohistochemistry staining, NM not measured. Tumor size on Day 1 of dosing.

[7] = Stability in whole blood in vitro, dog; format: in vitro ADME; details: 37° C.
Experimental: as §1

BALB/c mouse PK study = details: female; for Cmax: BALB/c mouse, 15 mg/m^2 (5 mg/kg) IV
HCC-1806 = assay: In vitro cytotoxicity (CellTiter-Glo) HCC-1806; format: cell-based; details: HCC-1806, Breast
Excerpt: as §3

[8] = CNS behavioral model (Irwin study); format: in vivo; details: single dose 0.2, 0.5 or 1 mg/kg, rats
Experimental: As part of the Good Laboratory Practice (GLP)-compliant toxicity studies, a core battery of safety pharmacology tests were performed. […] Electrocardiogram (ECG) and respiratory plethysmography measurements were taken in monkeys dosed at 0.2, 0.5, 1 and 1.5 mg/kg (2.4, 6, 12 and 18 mg/m^2 respectively) twice weekly on Day 4, Day 22 (following 2nd and 7th dose) and in the recovery period (for animals dosed with 0, 6 and 12 mg/m^2 twice weekly). Blood pressure (BP) measurements were also evaluated in the same monkeys on Day 1 and Day 25 and in the recovery period. […] It is therefore concluded that BT1718 has no cardiac, respiratory or behavioral liability at the doses and schedule tested in the GLP toxicity studies.

[9] = PK samples in EBC-1 xenograft study; details: female, BALB/c, mouse, plasma, iv
[10] = Stability in plasma in vitro, mouse; format: in vitro ADME; details: 37° C.
Experimental: as §1

NCI-H292 = assay: In vitro cytotoxicity (CellTiter-Glo) NCI-H292; format: cell-based; details: NCI-H292, NSCLC
Excerpt: as §3

SNU-16 = assay: In vitro cytotoxicity (CellTiter-Glo) SNU-16; format: cell-based; details: SNU-16, Gastric
Excerpt: as §3

[11] = Non-GLP toxicity studies, monkey; format: in vivo, monkeys
Excerpt: as §4

[12] = Stability in plasma in vitro, dog; format: in vitro ADME; details: 37° C.
Experimental: as §1

[13] = dogs 1 mg/kg, 20 mg/m^2 twice weekly
[14] = 2.4 mg/m2, Monkeys GLP, 2.4 mg/m^2 IV
[15] = 6 mg/m2, Monkeys GLP, 6 mg/m^2 IV
[16] = 12 mg/m2, Monkeys GLP, 12 mg/m^2 IV
[17] = 18 mg/m2, Monkeys GLP, 18 mg/m^2 IV
[18] = BALB/c, mouse, plasma, iv, 15 mg/m2

SMILES: COc1cc2cc(c1Cl)N(C)C(=O)C[C@H](OC(=O)[C@H](C)N(C)C(=O)CCSSC(C)CCC(=O)NCCC(=O)N(C)CC(=O)N(C)CC(=O)N(C)CC(=O)N(C)CC(=O)N(C)CC(=O)N(C)CC(=O)N(C)CC(=O)N(C)CC(=O)N(C)CC(=O)N(C)CC(=O)N[C@@H](C)C(=O)N[C@H]1CSCc3cc4cc(c3)CSC[C@H](NC(=O)[C@@H](C)NC(=O)[C@H](Cc3cccc5ccccc35)NC(=O)[C@H](CCC(=O)O)NC(=O)[C@H](CC(N)=O)NC(=O)[C@@H](C)NC1=O)C(=O)N[C@@H](CCC(=O)O)C(=O)N[C@@H](CC(=O)O)C(=O)N[C@@H](Cc1ccccc1)C(=O)N[C@@H](Cc1ccc(O)cc1)C(=O)N[C@@H](CC(=O)O)C(=O)N[C@@H](C(C)(C)C)C(=O)N[C@H](C(N)=O)CSC4)[C@]1(C)O[C@H]1[C@H](C)[C@@H]1C[C@@](O)(NC(=O)O1)[C@H](OC)/C=C/C=C(\C)C2 (stereo partly shown) [BT1718] ({X1-βAla}-[Sar][Sar][Sar][Sar][Sar][Sar][Sar][Sar][Sar][Sar]AC[dA]NE[1Nal][dA]CEDFYD[Tle]C-NH2; linker 12-18-25 via TBMB (inferred))
- half-life [1]: > 1440 min
- half-life [2]: 12 to 33.6 min
- intrinsic clearance [3]: low
- GI findings ([4]; dog 1 mg/kg (20 mg/m^2) twice weekly): Slight to moderate small intestinal degeneration
- bladder findings ([4]; dog, 14 mg/m^2 twice weekly): Bladder epithelial degeneration
- hepatic findings [4, 13]: Elevated liver enzymes
- peripheral haematology [4, 13]: significant decreases in WBCs
- renal findings [4, 13]: Moderate renal tubule degeneration and epithelial mitosis
- clearance [5, 14]: 13.4 ± 4.7 mL/min/kg
- half-life [5, 14]: 12.6 min
- Cmax [5, 14]: 200 ± 40 nM
- Vd [5, 14]: 0.24 ± 0.05 L/kg
- clearance [5, 15]: 8.8 ± 0.8 mL/min/kg
- half-life [5, 15]: 13.8 min
- Cmax [5, 15]: 670 ± 40 nM
- Vd [5, 15]: 0.17 ± 0.02 L/kg
- clearance [5, 16]: 8.2 ± 0.6 mL/min/kg
- half-life [5, 16]: 21.6 min
- Cmax [5, 16]: 1210 ± 90 nM
- Vd [5, 16]: 0.21 ± 0.01 L/kg
- clearance [5, 17]: 6.7 mL/min/kg
- half-life [5, 17]: 22.8 min
- Cmax [5, 17]: 2530 nM
- Vd [5, 17]: 0.16 L/kg
- AUC [5, 14]: 0.08 ± 0.02 µM·h
- AUC [5, 15]: 0.28 ± 0.03 µM·h
- AUC [5, 16]: 0.59 ± 0.14 µM·h
- AUC [5, 17]: 1.09 µM·h
- AUC [6]: 1.7 ± 0.3 µM·h
- clearance [6]: 10.6 ± 1.5 mL/min/kg
- half-life [6]: 25.8 ± 2.4 min
- Cmax ([6]; read-out: C0/Cmax): 5.8 ± 0.94 µM
- Vd ([6]; read-out: Vdss): 0.26 ± 0.08 L/kg
- IC50 (MOLP-8): 141 nM
- half-life [7]: > 1440 min
- AUC (BALB/c mouse PK study; BALB/c, mouse, plasma, intravenous, 5 mg/kg): ~2.5 µM·h
- Cmax (BALB/c mouse PK study; BALB/c, mouse, plasma, iv, 5 mg/kg, C0/Cmax): 8 µM
- AUC (BALB/c mouse PK study; [18]): 2.3 ± 0.2 µM·h
- Vd (BALB/c mouse PK study; [18]): 0.23 ± 0.09 L/kg
- clearance (BALB/c mouse PK study; [18]): 7.5 ± 0.6 mL/min/kg
- half-life (BALB/c mouse PK study; [18]): 33.6 ± 10.8 min
- Cmax (BALB/c mouse PK study; read-out: C0/Cmax): 7.2 ± 0.41 µM
- IC50 (HCC-1806): 1.4 nM
- CNS behavioral effects (Irwin study) [8]: No effects
- Cmax ([9]; 3 mg/kg): 1.5 ± 0.9 µM
- Cmax ([9]; 10 mg/kg): 7.6 ± 0.6 µM
- half-life [10]: > 300 min
- IC50 (NCI-H292): 11.6 nM
- IC50 (SNU-16): 19.5 nM
- peripheral haematology ([11]; monkeys 2 mg/kg, 24 mg/m^2 once weekly): significant decreases in WBCs
- GI findings ([11]; monkeys, single 3 mg/kg (36 mg/m^2) one week post 1.5 mg/kg dose): mild single cell necrosis of the glandular epithelial cells in the caecum
- half-life [12]: > 360 min
